Experimental data taken from patent US20230398116A1, “Agent for reversing resistance to anticancer drugs” (Y'S AC CO., LTD., priority 2020, published 2023).
One block for each molecule: values may come before it.

What was measured:
E0771 cells = assay: MTT assay / cell proliferation (confluence) assay, E0771; type: cell-based, mouse; conditions: E0771, erlotinib 30 μM or 50 μM, 48 hours, MTT, FIG. 10
Protocol: (§1) Human and mouse breast cancer cells (1×10^4) were cultured in 10% FCS containing RPMI1640 medium on a 96-well flat bottom plate (Corning, Tewksbury, MA) at 37° C. for 24 hours, and then stimulated with IL-26 for 48 hours in the presence or absence of EGFR-TKI (gefitinib or erlotinib) at various concentrations, a signal inhibitor, and a neutralizing antibody. HUVECs were seeded in a 96-well flat bottom plate at 5×10^3 cells/well in a 2% FBS-containing EGM medium in which growth factors were reduced by half, and cultured at 37° C. for 12 hours. Thereafter, the medium was aspirated, and a recombinant human IL-26 dimer was adjusted to a final concentration of 10 ng/mL in a 2% FBS-containing EGM medium containing no growth factors, and added to the cells. The stimulation was started in the presence or absence of control human IgG and anti-human IL-26 antibodies, and the cells were cultured for 48 hours. Thereafter, a concentration of 20 μl or 1/10 of a 5 mg/ml MTT solution (Tetrazolium monosodium salt, WST-8) was added to each well, and the plate was allowed to stand for 1 hour. The absorbance at 450 nm/595 nm was measured using Microplate Reader (Bio-Rad, Hercules, CA) and data was analyzed with Microplate Manager 6 software (Bio-Rad).
(§2) Human and mouse breast cancer cells (1×10^4) were cultured in RPMI1640 medium containing 10% FCS for 24 hours at 37° C. on a 96-well flat bottom plate (Corning), and then stimulated with IL-26 (30 ng/ml) in the presence or absence of various concentrations of gefitinib and a neutralizing antibody. Cell proliferation was measured as cell confluence using IncuCyte ZOOM (Essen Bioscience, Ann Arbor, MI).

MDA-MB468 cells = assay: MTT assay / cell proliferation (confluence) assay, MDA-MB468; type: cell-based, human; conditions: MDA-MB-468, erlotinib 30 μM or 50 μM, 48 hours, MTT, FIG. 10
Protocol: as §1, §2

HCC70 cells = assay: MTT assay / cell proliferation (confluence) assay, HCC70; type: cell-based, human; conditions: HCC70, erlotinib 30 μM or 50 μM, 48 hours, MTT, FIG. 10
Protocol: as §1, §2

[1] = molecular target: T1, recombinant human IL-26/AK155 monomer, Cat #1375-IL/CF, R&D Systems (human, UniProt Q9NPH9 22-171); assay: ELISA, human IL-26 monomer coated at 0.5 µg/ml, antibody diluted 2-fold from 5 µg/ml, HRP anti-human kappa detection
T1 construct: also called recombinant human IL-26 monomer
T1 sequence (looked up): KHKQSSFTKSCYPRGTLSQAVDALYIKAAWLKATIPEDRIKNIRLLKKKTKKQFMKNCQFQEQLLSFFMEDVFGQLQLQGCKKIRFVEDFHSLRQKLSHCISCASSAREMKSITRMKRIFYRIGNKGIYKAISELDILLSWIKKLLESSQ
Protocol: (§3) The antigen binding of purified Ch69-10-IgG1, Hu69-10A-IgG1, and Hu69-10B-IgG1 was analyzed by ELISA. ELISA plates were coated overnight at 4° C. with the addition of 0.5 μg/ml human IL-26 (recombinant human IL-26/AK155 monomer, Cat #1375-IL/CF, R&D Systems, Minneapolis, MN) at 100 μl/well in 0.2 M sodium carbonate buffer (pH 9.4). Wells were washed with the wash buffer and blocked with the ELISA buffer. Subsequently, 100 μl/well of test antibody (mouse 69-10, Ch69-10-IgG1, Hu69-10A-IgG1, or Hu69-10B-IgG1) serially diluted 2-fold in RPMI medium starting at 5 μg/ml was added to measure a binding with IL-26. After incubation at room temperature for 1 hour and washing the plates with a wash buffer, a 1/2,000-diluted HRP-conjugated goat anti-human kappa chain polyclonal antibody (Bethyl Laboratories) (for Ch69-10-IgG1, Hu69-10A-IgG1 and Hu69-10B-IgG1) or a 1/2,000-diluted HRP-labeled goat anti-mouse kappa chain polyclonal antibody (Bethyl Laboratories) (for mouse 69-10) in ELISA buffer was added at 100 μl/well to detect bound antibodies. After incubation at room temperature for 30 min and washing with the wash buffer, 100 μl/well of ABTS substrate (Sigma Aldrich) was added to start color development and 100 μl/well of 2% oxalic acid was added to stop the color development. The absorbance was measured at 405 nm.

[2] = tested on: phosphorylation of AKT, JNK and EphA3 in HCC70 cells; assay: Western blotting of phosphorylation in HCC70 cells; type: cell-based, human; conditions: gefitinib 40 μM
Protocol: To analyze the phosphorylation of AKT, ERK, p38, JNK, STAT3, and EphA3, E0771 cells and HCC70 cells in 100 mm dishes were stimulated with IL-26 ([…]) and an anti-EphA3 polyclonal antibody (pAb) (10 μg/ml) for a specified period of time. After stimulation, the cells were lysed with a 2% protease inhibitor mixture (Sigma-Aldrich) and/or RIPA buffer added with 1×PhosSTOP (Roche Diagnostics, Tokyo, Japan), and a lysate was separated in a reduced state by SDS-PAGE (15 μg/lane). Immunoblots were performed using an anti-phosphorylated AKT antibody, an anti-phosphorylated ERK antibody, an anti-phosphorylated p38 antibody, an anti-phosphorylated JNK antibody, an anti-phosphorylated STAT3 antibody, and an anti-phosphorylated EphA3 antibody that recognize both human and mouse antigens. For reprobing, the membrane was immersed in a stripping buffer. After the stripping procedure, the membranes were re-probed with anti-pan-AKT, anti-pan-ERK, anti-pan-p38, anti-pan-JNK, anti-pan-STAT3, and anti-pan-EphA3 antibodies recognizing both human and mouse antigens. Images were taken using a C-Digit Blot scanner (MS Techno Systems, Inc., Japan).

EphA3/IL-26 interaction = molecular target: T2, EphA3/IL-26 interaction (Homo sapiens, UniProt Q9NPH9); assay: Immunofluorescence of rhIL-26-Alexa 488 and cell surface EphA3 on E0771 cells; type: cell-based, mouse; conditions: E0771, antibodies 10 μg/ml, FIGS. 19 and 20
T2 construct: purchased R&D Systems; host or cells: IL-26 was purchased; EphA3 is endogenous on E0771 cells
T2 sequence (Q9NPH9 22-171): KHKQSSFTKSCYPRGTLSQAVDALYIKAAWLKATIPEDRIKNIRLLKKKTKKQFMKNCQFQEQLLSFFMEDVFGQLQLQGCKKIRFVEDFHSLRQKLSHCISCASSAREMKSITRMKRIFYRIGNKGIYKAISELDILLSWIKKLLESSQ
Protocol: E0771 and HCC70 cells (1×10^5) were cultured for 24 hours in RPMI1640 medium with 10% FCS on Lab-Tek chamber slides (Thermo Fisher Scientific). The cultured cells were stimulated with Alexa Fluor 488 labeled IL-26 (30 ng/ml) in the presence or absence of recombinant human and mouse EphA3-Ig for 1 hour. HCC70 cells were stimulated with IL-26 (30 ng/ml) in the presence or absence of gefitinib (40 μM), a signal inhibitor, and a neutralizing antibody for 24 hours. Subcutaneous tumor samples obtained from mice were fixed in 4% paraformaldehyde (Thermo Fisher Scientific) and embedded in OCT compound (Tissue-Tek (registered trademark), Sakura Finetek, Japan). Cells and slides were immunostained with each antibody and observed using a Zeiss inverted microscope and Axiovision 2.0 program (Carl Zeiss, Germany). The fluorescence intensity was quantified with Image-J software (NIH). The images were captured using a 100×400× objective.

IL-26 = molecular target: T3, IL-26 (Homo sapiens, UniProt Q9NPH9); assay: ELISA of antigen binding to human IL-26; design: purchased R&D Systems 1375-IL/CF; conditions: plates coated with 0.5 μg/ml human IL-26 monomer; calculated using GraphPadPrism
T3 sequence (Q9NPH9 22-171): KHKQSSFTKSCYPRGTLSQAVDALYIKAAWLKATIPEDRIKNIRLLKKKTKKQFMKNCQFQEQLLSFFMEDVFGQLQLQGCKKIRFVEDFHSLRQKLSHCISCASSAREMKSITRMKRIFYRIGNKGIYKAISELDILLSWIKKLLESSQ
Protocol: as §3

[3] = HCC70, Ephrin A5 200 ng/ml, FIG. 26 left

Molecule: C#Cc1cccc(Nc2ncnc3cc(OCCOC)c(OCCOC)cc23)c1 [erlotinib, Erlotinib, reference compound]
cell proliferation under erlotinib (E0771 cells): inhibitory effect of erlotinib on cell proliferation | cell proliferation under erlotinib (MDA-MB468 cells): inhibitory effect of erlotinib on cell proliferation | cell proliferation under erlotinib (HCC70 cells): inhibitory effect of erlotinib on cell proliferation

B1: Hu69-10A-IgG1/kappa antibody (Hu69-10A-IgG1) (antibody, V domains shown)
VH: QVTLKESGPALVKPTQTLTLTCTFSGFSLSTSGMGVGWIRQPPGKALEWLAHIWWDDDKYYNPSLKSQLTISKDTSKNQVVLTMTNMDPVDTATYYCVRGGITATHYYAMDYWGQGTTVTVSS
VL: DIQMTQSPSSLSASVGDRVTITCLASQTIGTWLSWYQQKPGKAPKLLIYAATSLADGVPSRFSGSGSGTKFTFTISSLQPEDIATYYCQQLYSSPWTFGGGTKVEIK
notes: also called h69-10A; humanized anti-IL-26 antibody Hu69-10A
EC50 [1]: 0.304 mg/L

B3: Ephrin A5: known ligand of EphA3 (protein, UniProt P52803 21-203, looked up)
Ephrin-A5: QDPGSKAVADRYAVYWNSSNPRFQRGDYHIDVCINDYLDVFCPHYEDSVPEDKTERYVLYMVNFDGYSACDHTSKGFKRWECNRPHSPNGPLKFSEKFQLFTPFSLGFEFRPGREYFYISSAIPDNGRRSCLKLKVFVRPTNSCMKTIGVHDRVFDVNDKVENSLEPADDTVHESAEPSRGEN
phosphorylation of AKT [2, 3]: slightly enhanced | phosphorylation of JNK and EphA3 [2, 3]: little effect | dephosphorylation of EphA3, activation of AKT and JNK phosphorylation ([2]; HCC70, IL-26 30 ng/ml or Ephrin A5 200 ng/ml, FIG. 26): such changes were not observed

B5: chimeric 69-10 IgG1/kappa antibody (Ch69-10-IgG1) (antibody, V domains shown)
VH: QVTLKESGPGILKPSQTLSLTCSFSGFSLSTSGMGVGWIRQPSGKGLEWLAHIWWDDDKYYNPSLKSQLTISKDTSRNQVFLKITSVDTADTATYYCVRGGITATHYYAMDYWGQGTSVTVSS
VL: DIQMTQSPASQSASLGESVTISCLASQTIGTWLSWYQQKPGKSPQLLIYAATSLADGVPSRFSGSGSGTKFSFKISSLQAEDFVSYYCQQLYSSPWTFGGGTKLEIK
notes: also called clone 1H8
EC50 [1]: 0.299 mg/L

The remaining lines, values ahead:

EC50 [1]: 0.396 mg/L
B2: Hu69-10B IgG1/kappa antibody (Hu69-10B-IgG1) (antibody, V domains shown)
VH: QVTLKESGPALVKPTQTLTLTCTFSGFSLSTSGMGVGWIRQPPGKALEWLAHIWWDDDKYYNPSLKSQLTISKDTSKNQVVLTMTNMDPVDTATYYCVRGGITATHYYAMDYWGQGTTVTVSS
VL: DIQMTQSPSSLSASVGDRVTITCLASQTIGTWLSWYQQKPGKAPKLLIYAATSLADGVPSRFSGSGSGTDFTFTISSLQPEDIATYYCQQLYSSPWTFGGGTKVEIK
notes: also called h69-10B; humanized anti-IL-26 antibody Hu69-10B

inhibition of colocalization of IL-26 with EphA3 (EphA3/IL-26 interaction) (EphA3/IL-26 interaction): inhibited EphA3/IL-26 interaction
B4: mouse soluble EphA3: recombinant mouse EphA3 Fc chimeric protein purchased from R&D Systems (protein)
chain: ELSPQPSNEVNLLDSKTIQGELGWISYPSHGWEEISGVDEHYTPIRTYQVCNVMDHSQNNWLRTNWVPRNSAQKIYVELKFTLRDCNSIPLVLGTCKETFNLYYMESDDHGVKFREHQFTKIDTIAADESFTQMDLGDRILKLNTEIREVGPVNKKGFYLAFQDVGACVALVSVRVYFKKCPFTVKNLAMFPDTVPMDSQSLVEVRGSCVNNSKEEDPPRMYCSTEGEWLVPIGKCTCNAGYEERGFICQACRPGFYKASDGAAKCAKCPPHSSTQEDGSMNCRCENNYFRAEKDPPSMACARPPSAPRNVISNINETSVILDWSWPLDTGGRKDITFNIICKKCGWNVRQCEPCSPNVRFLPRQLGLTNTTVTVTDLLAHTNYTFEIDAVNGVSELSSPPRQYAAVSITTNQAAPSPVMTIKKDRTSRNSISLSWQEPEHPNGIILDYEVKYYQKQEQETSYTILRARGTNVTISSLKPDTTYVFQIRARTAAGYGTNSRKFEFETSPDSFSISGENSH
modifications: left off: a dimerising Fc or GST
notes: recombinant mouse EphA3 Fc chimeric protein purchased from R&D Systems

EC50 values (binding to human IL-26, ELISA) (IL-26): 0.299 mg/L
B6: Ch69-10-IgG1: chimeric 69-10 IgG1/kappa antibody with mouse 69-10 VH and VL and human constant regions (antibody, V domains shown)
VH: QVTLKESGPGILKPSQTLSLTCSFSGFSLSTSGMGVGWIRQPSGKGLEWLAHIWWDDDKYYNPSLKSQLTISKDTSRNQVFLKITSVDTADTATYYCVRGGITATHYYAMDYWGQGTSVTVSS
VL: DIQMTQSPASQSASLGESVTISCLASQTIGTWLSWYQQKPGKSPQLLIYAATSLADGVPSRFSGSGSGTKFSFKISSLQAEDFVSYYCQQLYSSPWTFGGGTKLEIK
